B1: PTPRD (parent)
chain: ITWFKDFLPVDTSNNNGRIKQLRS

Variants of: B1
Experiment: protein stability index of a GFP-peptide fusion (GPS, HEK-293T) (PSI 1-6); higher = more stable
Details: c terminus: a fixed tail appended
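Further: lentivirally expressed fusions sorted by FACS into six bins by GFP to DsRed ratio, PSI derived from sequencing read proportions per bin multiplied by bin number.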

Protein stability index, by site and new letter:
I19: M 2.04 | H 1.53 | G 2.24 | Y 2.13 | E 1.95 | A 1.72 | F 2.25 | V 1.73 | K 2.33 | L 2.07 | N 1.95 | C 1.69
P9: S 2.13 | E 2 | I 2.02 | V 2.04 | T 1.42 | K 1.96 | Q 2.12 | A 2 | M 2.31 | W 1.75 | R 1.43 | F 1.93 | G 1.72 | L 2.84 | N 2.28 | C 1.58 | D 2.09
T2: Y 1.68 | I 2.18 | A 2.34 | R 1.59 | K 2.03 | H 2.15 | D 1.53 | G 2.78 | P 3 | Q 1.84 | C 2.09 | L 1.41 | F 2.41
K20: Y 2.19 | P 1.61 | S 2.72 | N 2.08 | R 1.53 | C 1.43 | Q 1.94 | V 1.68 | M 1.55 | A 1.66 | H 1.63 | T 1.95 | D 2.05 | W 1.95 | G 1.58
F4: T 2.03 | Q 2.21 | V 1.87 | G 3.35 | I 1.62 | C 1.94 | A 2.17 | K 2.37 | P 2.74 | Y 1.95 | E 3.97
N15: S 1.67 | C 2.26 | G 1.72 | P 1.82 | A 1.61 | Q 1.76 | H 1.48 | W 2.17 | I 1.58 | Y 1.87 | M 1.8 | L 2.37
R18: H 2.77 | N 1.97 | C 2.83 | D 1.83 | I 1.74 | M 1.63 | E 1.87 | W 1.62 | S 1.95 | A 1.8 | V 2.33 | K 1.68 | Q 2.24 | L 1.45
L22: W 1.84 | V 1.62 | E 2.07 | A 1.69 | Y 2.73 | D 2 | C 1.61 | S 2.04 | K 1.77 | P 1.63 | Q 1.62 | T 2.12
D11: K 1.71 | W 2.33 | I 2.44 | A 1.9 | V 1.86 | H 1.73 | E 1.99 | N 2.01 | F 1.9 | Q 1.84 | Y 1.67 | T 1.61 | P 2.06 | R 1.35 | G 1.99 | C 2.23 | L 1.62
S24: C 2.32 | H 1.74 | F 1.69 | Q 1.78 | L 1.41 | R 2.18 | A 1.96 | V 1.52 | K 2.15 | T 1.51 | P 1.34 | Y 1.94 | I 1.97
K5: L 2.08 | Q 2.07 | A 1.98 | I 2.19 | P 2.24 | R 1.79 | V 1.51 | E 2.91 | Y 2.75 | N 2.12 | W 1.66 | H 2.06 | D 2.44
L8: S 2.04 | H 1.93 | T 2.23 | C 1.81 | W 1.76 | Y 1.64 | V 1.77 | P 1.96 | G 2 | I 2.32 | E 1.85 | R 2.41 | F 1.88 | K 2.28 | M 1.49
F7: S 2.36 | H 2.76 | A 2.45 | R 1.8 | M 2.46 | E 2.45 | Q 2.05 | K 1.88
G17: R 1.5 | L 1.73 | A 1.58 | I 1.53 | D 2.09 | H 1.37 | S 2.33 | P 1.73 | K 2.86 | V 1.31 | Q 2.15 | N 1.86 | C 1.88
D6: Y 2.85 | F 3.07 | V 2.3 | N 1.94 | Q 1.4 | L 3.08 | T 1.6 | C 2.26 | P 1.85 | R 2.37 | A 1.78 | I 3.07 | H 1.9 | M 2.14 | G 2.27 | W 2.26
W3: E 4.07 | L 2.31 | K 2.85 | I 1.93 | M 2.95 | N 3.23 | T 3.3 | V 2.46 | Q 3.13 | P 3.75 | G 3.03 | A 3.76 | C 2.82 | R 3.1 | H 3.33
N16: Y 1.71 | E 2.02 | I 2.32 | T 2.38 | L 1.73 | W 2.17 | C 2.09 | K 1.98 | G 1.7 | P 2.32 | F 1.82 | S 1.98 | Q 2.26 | V 2.62
S13: A 1.62 | T 1.95 | I 1.41 | Q 1.85 | N 1.68 | K 1.77 | F 1.52 | M 2.17 | H 2.05 | V 2.38 | W 1.65 | D 2.22
Q21: C 1.52 | V 1.67 | K 2.58 | D 2.17 | P 2.01 | M 1.45 | W 2.24 | L 1.73 | T 1.69 | N 1.99 | F 1.75 | I 2.23 | S 2.38
V10: G 2.28 | C 2.05 | H 2.07 | E 2.23 | F 2.65 | Q 2.17 | A 2.03 | P 2.26 | R 1.82 | S 2.15 | L 1.95 | T 1.76 | D 2.39 | Y 1.89 | W 2.62 | I 2.49
R23: S 1.83 | E 2.77 | K 2.55 | F 1.88 | I 1.88 | Q 2.09 | N 1.83 | Y 1.63 | P 1.8 | G 1.74 | C 1.43 | T 2.04 | L 1.81 | D 2.39 | V 1.91 | H 1.74 | W 1.11
T12: R 1.9 | K 2.01 | N 1.51 | D 1.99 | A 1.98 | M 2.32 | C 1.55 | Y 1.55 | V 2.42 | G 1.83 | L 1.94 | S 1.94 | H 1.48
I1: K 2.99 | P 3.97 | T 3.02 | S 3.17 | R 3.03 | V 2.15 | F 2.03 | A 3.26 | L 2.33 | E 3.66 | H 3.47 | C 1.9 | W 2.17 | Y 1.92 | G 3.39 | N 3.69
N14: K 2.04 | Q 2.02 | R 1.98 | Y 1.51 | W 2.16 | T 1.76 | H 1.37 | G 1.92 | V 1.76 | A 2.03 | M 1.79 | P 2.37 | E 2.05 | S 2.94 | F 1.5 | D 1.66 | L 1.96

— the supplement of paper PMC10567573
